# Test results as given in the RNAGym collection of RNA variant scans (doi:10.1093/molbev/msab373).
# B1: Azoarcus group I ribozyme (parent)
# chain: GUGCCUUGCGCCGGGAAACCACGCAAGGGAUGGUGUCAAAUUCGGCGAAACCUAAGCGCCCGCCCGGGCGUAUGGCAACGCCGAGCCAAGCUUCGGCGCCUGCGCCGAUGAAGGUGUAGAGACUAGACGGCACCCACCUAAGGCAAACGCUAUGGUGAAGGCAUAGUCCAGGGAGUGGCGAAAGUCACACAAACCGG
# Variants of: B1
# Experiment: reverse-splicing fitness (ratio to wild type); higher = more active; in vitro selection; Mg2+ level not given
# Procedure, shortened: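 An in vitro group I ribozyme library with randomized positions was T7-transcribed and gel-purified. In triplicate, 10 pmol RNA in EPPS pH 7.5 was reacted with 50 pmoles of a 30-nt RNA substrate for 1 h at 37 °C across several added MgCl2 levels (1–48 mM), then stopped with EDTA. Products were reverse transcribed from a substrate-complementary primer, PCR-amplified and sequenced (HiSeq 4000). Fitness is a variant's read proportion after selection over that before, normalised to wild type.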
row,Variant,reverse-splicing fitness
1,C82G A120C A145U C150G U176C,0.0164
2,C82G A120C A145U C150G U176G,0.00444
3,C82G A120C A145U C150U,0.11
4,C82G A120C A145U C150U C169A,0.00933
5,C82G A120C A145U C150U C169A U176A,0.015
6,C82G A120C A145U C150U C169A U176C,0.00984
7,C82G A120C A145U C150U C169A U176G,0.00538
8,C82G A120C A145U C150U C169G,0.00838
9,C82G A120C A145U C150U C169G U176A,0.0139
10,C82G A120C A145U C150U C169G U176C,0.015
11,C82G A120C A145U C150U C169G U176G,0.0044
12,C82G A120C A145U C150U C169U,0.0172
13,C82G A120C A145U C150U C169U U176A,0.0152
14,C82G A120C A145U C150U C169U U176C,0.0148
15,C82G A120C A145U C150U C169U U176G,0.00456
16,C82G A120C A145U C150U U176A,0.0489
17,C82G A120C A145U C150U U176C,0.0672
18,C82G A120C A145U C150U U176G,0.0119
19,C82G A120C A145U C169A,0.00673
20,C82G A120C A145U C169A U176A,0.0121
21,C82G A120C A145U C169A U176C,0.00989
22,C82G A120C A145U C169A U176G,0.00379
23,C82G A120C A145U C169G,0.0068
24,C82G A120C A145U C169G U176A,0.0121

row,Variant,reverse-splicing fitness
1,C82G A120C A145U C169G U176C,0.0138
2,C82G A120C A145U C169G U176G,0.00368
3,C82G A120C A145U C169U,0.0247
4,C82G A120C A145U C169U U176A,0.0158
5,C82G A120C A145U C169U U176C,0.0154
6,C82G A120C A145U C169U U176G,0.00344
7,C82G A120C A145U U176A,0.0752
8,C82G A120C A145U U176C,0.0999
9,C82G A120C A145U U176G,0.0177
10,C82G A120C C150A,0.0228
11,C82G A120C C150A C169A,0.0151
12,C82G A120C C150A C169A U176A,0.0216
13,C82G A120C C150A C169A U176C,0.0213
14,C82G A120C C150A C169A U176G,0.00601
15,C82G A120C C150A C169G,0.00837
16,C82G A120C C150A C169G U176A,0.0187
17,C82G A120C C150A C169G U176C,0.0222
18,C82G A120C C150A C169G U176G,0.00501
19,C82G A120C C150A C169U,0.0118
20,C82G A120C C150A C169U U176A,0.0156
21,C82G A120C C150A C169U U176C,0.0182
22,C82G A120C C150A C169U U176G,0.00663
23,C82G A120C C150A U176A,0.0182
24,C82G A120C C150A U176C,0.0287

row,Variant,reverse-splicing fitness
1,C82G A120C C150A U176G,0.0105
2,C82G A120C C150G,0.0159
3,C82G A120C C150G C169A,0.00942
4,C82G A120C C150G C169A U176A,0.01
5,C82G A120C C150G C169A U176C,0.0106
6,C82G A120C C150G C169A U176G,0.0082
7,C82G A120C C150G C169G,0.00797
8,C82G A120C C150G C169G U176A,0.0067
9,C82G A120C C150G C169G U176C,0.00574
10,C82G A120C C150G C169G U176G,0.00538
11,C82G A120C C150G C169U,0.0121
12,C82G A120C C150G C169U U176A,0.00577
13,C82G A120C C150G C169U U176C,0.0109
14,C82G A120C C150G C169U U176G,0.00535
15,C82G A120C C150G U176A,0.00858
16,C82G A120C C150G U176C,0.0138
17,C82G A120C C150G U176G,0.00413
18,C82G A120C C150U,0.108
19,C82G A120C C150U C169A,0.0121
20,C82G A120C C150U C169A U176A,0.0177
21,C82G A120C C150U C169A U176C,0.0133
22,C82G A120C C150U C169A U176G,0.00618
23,C82G A120C C150U C169G,0.00822
24,C82G A120C C150U C169G U176A,0.0141

row,Variant,reverse-splicing fitness
1,C82G A120C C150U C169G U176C,0.0162
2,C82G A120C C150U C169G U176G,0.0048
3,C82G A120C C150U C169U,0.0173
4,C82G A120C C150U C169U U176A,0.0159
5,C82G A120C C150U C169U U176C,0.0162
6,C82G A120C C150U C169U U176G,0.00634
7,C82G A120C C150U U176A,0.0429
8,C82G A120C C150U U176C,0.0574
9,C82G A120C C150U U176G,0.0136
10,C82G A120C C169A,0.00902
11,C82G A120C C169A U176A,0.0185
12,C82G A120C C169A U176C,0.0179
13,C82G A120C C169A U176G,0.00393
14,C82G A120C C169G,0.00817
15,C82G A120C C169G U176A,0.0172
16,C82G A120C C169G U176C,0.0176
17,C82G A120C C169G U176G,0.00385
18,C82G A120C C169U,0.0232
19,C82G A120C C169U U176A,0.019
20,C82G A120C C169U U176C,0.0155
21,C82G A120C C169U U176G,0.00468
22,C82G A120C U176A,0.0764
23,C82G A120C U176C,0.107
24,C82G A120C U176G,0.0151

row,Variant,reverse-splicing fitness
1,C82G A120G,0.029
2,C82G A120G A145C,0.0276
3,C82G A120G A145C C150A,0.00852
4,C82G A120G A145C C150A C169A,0.00825
5,C82G A120G A145C C150A C169A U176A,0.0119
6,C82G A120G A145C C150A C169A U176C,0.00516
7,C82G A120G A145C C150A C169A U176G,0.00483
8,C82G A120G A145C C150A C169G,0.00875
9,C82G A120G A145C C150A C169G U176A,0.0232
10,C82G A120G A145C C150A C169G U176C,0.0136
11,C82G A120G A145C C150A C169G U176G,0.00456
12,C82G A120G A145C C150A C169U,0.00751
13,C82G A120G A145C C150A C169U U176A,0.0196
14,C82G A120G A145C C150A C169U U176C,0.0106
15,C82G A120G A145C C150A C169U U176G,0.00463
16,C82G A120G A145C C150A U176A,0.0102
17,C82G A120G A145C C150A U176C,0.00828
18,C82G A120G A145C C150A U176G,0.00453
19,C82G A120G A145C C150G,0.00798
20,C82G A120G A145C C150G C169A,0.0102
21,C82G A120G A145C C150G C169A U176A,0.00893
22,C82G A120G A145C C150G C169A U176C,0.00681
23,C82G A120G A145C C150G C169A U176G,0.00487
24,C82G A120G A145C C150G C169G,0.0108

row,Variant,reverse-splicing fitness
1,C82G A120G A145C C150G C169G U176A,0.00772
2,C82G A120G A145C C150G C169G U176C,0.00761
3,C82G A120G A145C C150G C169G U176G,0.00412
4,C82G A120G A145C C150G C169U,0.00976
5,C82G A120G A145C C150G C169U U176A,0.0154
6,C82G A120G A145C C150G C169U U176C,0.0125
7,C82G A120G A145C C150G C169U U176G,0.00495
8,C82G A120G A145C C150G U176A,0.00713
9,C82G A120G A145C C150G U176C,0.00894
10,C82G A120G A145C C150G U176G,0.00333
11,C82G A120G A145C C150U,0.0111
12,C82G A120G A145C C150U C169A,0.0116
13,C82G A120G A145C C150U C169A U176A,0.0126
14,C82G A120G A145C C150U C169A U176C,0.00669
15,C82G A120G A145C C150U C169A U176G,0.00471
16,C82G A120G A145C C150U C169G,0.0163
17,C82G A120G A145C C150U C169G U176A,0.0238
18,C82G A120G A145C C150U C169G U176C,0.0128
19,C82G A120G A145C C150U C169G U176G,0.00426
20,C82G A120G A145C C150U C169U,0.0103
21,C82G A120G A145C C150U C169U U176A,0.0184
22,C82G A120G A145C C150U C169U U176C,0.0138
23,C82G A120G A145C C150U C169U U176G,0.00404
24,C82G A120G A145C C150U U176A,0.00928

row,Variant,reverse-splicing fitness
1,C82G A120G A145C C150U U176C,0.00922
2,C82G A120G A145C C150U U176G,0.00485
3,C82G A120G A145C C169A,0.0237
4,C82G A120G A145C C169A U176A,0.0144
5,C82G A120G A145C C169A U176C,0.0123
6,C82G A120G A145C C169A U176G,0.0031
7,C82G A120G A145C C169G,0.0468
8,C82G A120G A145C C169G U176A,0.0291
9,C82G A120G A145C C169G U176C,0.0224
10,C82G A120G A145C C169G U176G,0.00393
11,C82G A120G A145C C169U,0.0209
12,C82G A120G A145C C169U U176A,0.0207
13,C82G A120G A145C C169U U176C,0.0185
14,C82G A120G A145C C169U U176G,0.00392
15,C82G A120G A145C U176A,0.0133
16,C82G A120G A145C U176C,0.0158
17,C82G A120G A145C U176G,0.00484
18,C82G A120G A145G,0.0281
19,C82G A120G A145G C150A,0.0107
20,C82G A120G A145G C150A C169A,0.0126
21,C82G A120G A145G C150A C169A U176A,0.0199
22,C82G A120G A145G C150A C169A U176C,0.0228
23,C82G A120G A145G C150A C169A U176G,0.00618
